B1: WT-HYPE (aa 102-458) (enzyme)
chain: GKLEARAALNQALEMKRQGKREKAQKLFMHALKMDPDFVDALTEFGIFSEEDKDIIQADYLYTRALTISPYHEKALVNRDRTLPLVEEIDQRYFSIIDSKVKKVMSIPKGNSALRRVMEETYYHHIYHTVAIEGNTLTLSEIRHILETRYAVPGKSLEEQNEVIGMHAAMKYINTTLVSRIGSVTISDVLEIHRRVLGYVDPVEAGRFRTTQVLVGHHIPPHPQDVEKQMQEFVQWLNSEEAMNLHPVEFAALAHYKLVYIHPFIDGNGRTSRLLMNLILMQAGYPPITIRKEQRSDYYHVLEAANEGDVRPFIRFIAKCTETTLDTLLFATTEYSVALPEAQPNHSGFKETLPVKP

“And” between values parts separate entries of the source, which are not always exact repeats. Equal values may be shown once.

Common to all, as to experiment: BLI
A general note: Biolayer interferometry detects binding as a change in optical thickness at a sensor tip.

In assay [1] the target is BiP-His6 (WT-BiP, aa 19-637) (human, UniProt P11021 19-637).
BiP-His6 (WT-BiP, aa 19-637), sequence (P11021 19-637): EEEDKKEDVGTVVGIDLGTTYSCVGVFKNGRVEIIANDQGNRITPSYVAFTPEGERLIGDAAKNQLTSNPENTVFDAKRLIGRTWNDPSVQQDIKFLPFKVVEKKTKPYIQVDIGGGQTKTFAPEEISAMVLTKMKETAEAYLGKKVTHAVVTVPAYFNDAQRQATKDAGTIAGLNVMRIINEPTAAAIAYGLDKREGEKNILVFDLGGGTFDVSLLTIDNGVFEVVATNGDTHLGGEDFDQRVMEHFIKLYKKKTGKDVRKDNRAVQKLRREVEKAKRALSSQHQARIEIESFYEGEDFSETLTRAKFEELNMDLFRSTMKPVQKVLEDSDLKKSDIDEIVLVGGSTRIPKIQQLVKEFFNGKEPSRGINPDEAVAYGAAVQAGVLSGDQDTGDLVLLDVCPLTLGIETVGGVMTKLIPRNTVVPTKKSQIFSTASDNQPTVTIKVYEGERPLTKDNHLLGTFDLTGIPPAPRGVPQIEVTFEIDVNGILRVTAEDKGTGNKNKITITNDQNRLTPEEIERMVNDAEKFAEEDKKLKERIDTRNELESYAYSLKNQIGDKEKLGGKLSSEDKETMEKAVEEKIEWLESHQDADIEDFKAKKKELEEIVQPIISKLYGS
Assay [2] has as its target His6-BiP NBD (aa 28-405) (human, UniProt P11021 28-405).
For assay [3], the target named is B1.

Results on 2 molecules are retold here after article doi:10.1101/494930 (bioRxiv, 2018).

As usually defined, the Kd is the free concentration of one partner at which half of the binding sites on the other are occupied at equilibrium, for simple one-to-one binding. High values mean a looser complex, low ones a tighter complex.

His6-BiP NBD (aa 28-405), sequence (P11021 28-405): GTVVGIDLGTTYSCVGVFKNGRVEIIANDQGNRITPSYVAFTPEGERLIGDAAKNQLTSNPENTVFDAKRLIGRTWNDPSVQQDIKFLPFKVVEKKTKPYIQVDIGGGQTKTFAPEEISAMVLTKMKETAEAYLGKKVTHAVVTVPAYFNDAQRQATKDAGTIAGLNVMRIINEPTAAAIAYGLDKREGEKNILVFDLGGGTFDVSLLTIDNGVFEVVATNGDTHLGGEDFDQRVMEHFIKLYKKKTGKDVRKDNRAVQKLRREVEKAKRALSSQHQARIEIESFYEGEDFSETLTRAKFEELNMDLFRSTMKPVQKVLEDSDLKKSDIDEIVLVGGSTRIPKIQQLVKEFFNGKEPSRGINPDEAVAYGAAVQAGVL

Turning to B1, the Kd in assay [1] was 4.5 µM and 6.1 µM; in assay [2] it was 3.16 µM.

B2: His6-BiP SBD (aa 418-637) (domain or fragment)
chain: not shown
Take B2: the Kd in assay [3] came out at 6.85 µM.
